Experimental data reported in patent EP2852397B1.

How the values were obtained:
human Nav1.7 (human) = human Nav1.7 (human) (UniProt Q15858); assay: cell-based or functional assay
human Nav1.2 (human) = human Nav1.2 (human) (UniProt Q99250); assay: cell-based or functional assay

recombinant Huwentoxin-IV (peptide)
IC50, veratridine-induced depolarization inhibition assay (human Nav1.7 (human)): 159 nM | IC50, veratridine-induced depolarization inhibition assay (FRET, FLIPR Tetra) (human Nav1.7 (human)): 160 nM | ratio of IC50 for Nav1.2 to IC50 for Nav1.7 (human Nav1.7 (human)): 2.14 | IC50, veratridine-induced depolarization inhibition assay (human Nav1.2 (human)): 342 nM
